The results in this text go back to paper PMC8809517, “Cofactor-independent RNA editing by a synthetic S-type PPR protein”.

Assay in all cases: high-throughput RNA pulldown from lysate on Ni-NTA beads; HRP: 50 mM Tris pH 8, 150 mM NaCl, 1 mM beta-mercaptoethanol, 50 ug/ml BSA, 3 ug/ml yeast RNA, 0.5% heparin; ITC and FP: Tris pH 8, 200 mM KCl, 5% glycerol; MST: 50 mM Tris pH 8, 200 mM NaCl, 1 mM DTT, BSA, heparin, 0.05% Tween 20
Holding throughout (settings): tags: N-terminal His-eGFP

Data set [1] addresses T1, GFP-9S library array, motif 4 ND N98M;D124C (synthetic construct, N98M;D124C).
T1 chain: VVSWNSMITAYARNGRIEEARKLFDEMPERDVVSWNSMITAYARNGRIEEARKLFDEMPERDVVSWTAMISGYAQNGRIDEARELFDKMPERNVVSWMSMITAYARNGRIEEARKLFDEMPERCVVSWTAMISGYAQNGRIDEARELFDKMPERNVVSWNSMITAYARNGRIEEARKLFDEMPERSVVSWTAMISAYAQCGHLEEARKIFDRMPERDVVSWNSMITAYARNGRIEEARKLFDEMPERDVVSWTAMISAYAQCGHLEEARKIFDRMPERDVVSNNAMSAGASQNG

The target in data set [2] is T2, GFP-9S library array, motif 4 ND N98K;D124P (synthetic construct, N98K;D124P).
T2 chain: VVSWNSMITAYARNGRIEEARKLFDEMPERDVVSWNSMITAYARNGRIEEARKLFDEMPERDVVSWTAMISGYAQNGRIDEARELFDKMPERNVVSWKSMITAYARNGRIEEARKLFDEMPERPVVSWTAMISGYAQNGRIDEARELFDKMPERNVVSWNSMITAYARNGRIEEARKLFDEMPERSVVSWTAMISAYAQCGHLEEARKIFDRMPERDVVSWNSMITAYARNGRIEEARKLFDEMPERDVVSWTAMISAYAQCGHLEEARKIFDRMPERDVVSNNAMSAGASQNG

Data set [3] concerns the target T3, GFP-9S library array, motif 4 ND N98H;D124T (synthetic construct, N98H;D124T).
T3 chain: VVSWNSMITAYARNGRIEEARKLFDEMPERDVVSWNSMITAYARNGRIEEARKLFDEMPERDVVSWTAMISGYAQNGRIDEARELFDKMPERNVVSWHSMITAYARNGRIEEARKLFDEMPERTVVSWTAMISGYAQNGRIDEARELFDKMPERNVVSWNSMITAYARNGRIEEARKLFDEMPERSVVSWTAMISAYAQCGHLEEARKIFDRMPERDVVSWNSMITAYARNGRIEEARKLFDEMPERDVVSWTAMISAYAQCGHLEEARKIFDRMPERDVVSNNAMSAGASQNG

Data set [4] addresses T4, GFP-9S library array, motif 4 ND N98I;D124H (synthetic construct, N98I;D124H).
T4 chain: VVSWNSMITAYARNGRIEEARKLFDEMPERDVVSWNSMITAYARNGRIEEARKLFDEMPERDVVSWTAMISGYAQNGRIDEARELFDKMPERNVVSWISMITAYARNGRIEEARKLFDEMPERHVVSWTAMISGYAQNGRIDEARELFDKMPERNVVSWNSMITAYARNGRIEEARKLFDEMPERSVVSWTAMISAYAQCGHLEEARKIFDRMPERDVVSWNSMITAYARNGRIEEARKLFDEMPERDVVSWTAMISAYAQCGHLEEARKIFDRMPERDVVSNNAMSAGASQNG

The target in data set [5] is T5, GFP-9S library array, motif 4 ND N98G;D124Q (synthetic construct, N98G;D124Q).
T5 chain: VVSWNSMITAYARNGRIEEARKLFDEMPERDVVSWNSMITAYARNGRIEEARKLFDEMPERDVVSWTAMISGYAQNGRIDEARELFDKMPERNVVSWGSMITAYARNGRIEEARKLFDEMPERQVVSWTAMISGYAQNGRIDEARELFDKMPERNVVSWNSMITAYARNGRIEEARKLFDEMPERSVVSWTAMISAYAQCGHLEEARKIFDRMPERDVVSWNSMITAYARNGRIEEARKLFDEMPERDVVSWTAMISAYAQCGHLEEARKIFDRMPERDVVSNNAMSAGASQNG

As for AUUAAACGUGA (ssRNA) [IR-rpoA-A], the equilibrium dissociation constant (Kd) (usually a measure of binding affinity in units of concentration) in data set [1] (label: 5' IRDye 800CW) was 85.3 nM; in data set [2] (label: 5' IRDye 800CW), 194 nM; in data set [3] (label: 5' IRDye 800CW), 103 nM; in data set [4] (label: 5' IRDye 800CW) it was 167 nM; in data set [5] (label: 5' IRDye 800CW), 150 nM.
Taken in the same sequence, the figures for AUUAUACGUGA (ssRNA) [IR-rpoA-U] were 193 nM, 76.4 nM, 24.9 nM, 243 nM and 142 nM.
For the molecule AUUACACGUGA (ssRNA) [Cy5-rpoA], the Kd in data set [1] (label: 5' Cy5) amounted to 99.7 nM; in data set [2] (label: 5' Cy5) it was 107 nM; in data set [3] (label: 5' Cy5), 50.9 nM; in data set [4] (label: 5' Cy5), 147 nM; in data set [5] (label: 5' Cy5), 96.6 nM.
Taken in the same sequence, the figures for AUUAGACGUGA (ssRNA) [Cy5-rpoA-G] were 68.8 nM, 105 nM, 75 nM, 107 nM and 109 nM.
